These results are taken from article PMC2884976 (The Journal of General Virology, 2007).

B1: GST–M1 middle domain fusion protein (domain or fragment)
chain: GDPNNMDKAVKLYRKLKREITFHGAKEISLSYSAGALASCMGLIYNRMGAVTTEVAFGLVCATCEQIADSQHRSHRQM
notes: not shown: GST, N-terminal, kept
B2: untagged WT radiolabelled M1, in vitro translated (natural protein)
chain: MSLLTEVETYVLSIIPSGPLKAEIAQRLEDVFAGKNTDLEVLMEWLKTRPILSPLTKGILGFVFTLTVPSERGLQRRRFVQNALNGNGDPNNMDKAVKLYRKLKREITFHGAKEISLSYSAGALASCMGLIYNRMGAVTTEVAFGLVCATCEQIADSQHRSHRQMVTTTNPLIRHENRMVLASTTAKAMEQMAGSSEQAAEAMEVASQARQMVQAMRTIGTHPSSSAGLKNDLLENLQAYQKRMGVQMQRFK
B3: GST–M1 M+C domain fusion protein (domain or fragment)
chain: GDPNNMDKAVKLYRKLKREITFHGAKEISLSYSAGALASCMGLIYNRMGAVTTEVAFGLVCATCEQIADSQHRSHRQMVTTTNPLIRHENRMVLASTTAKAMEQMAGSSEQAAEAMEVASQARQMVQAMRTIGTHPSSSAGLKNDLLENLQAYQKRMGVQMQRFK
notes: as for B1
B4: GST–M1 N+M domain fusion protein (domain or fragment)
chain: MSLLTEVETYVLSIIPSGPLKAEIAQRLEDVFAGKNTDLEVLMEWLKTRPILSPLTKGILGFVFTLTVPSERGLQRRRFVQNALNGNGDPNNMDKAVKLYRKLKREITFHGAKEISLSYSAGALASCMGLIYNRMGAVTTEVAFGLVCATCEQIADSQHRSHRQM
notes: as for B1

What all share (assay): pull-down
The target of one test is purified NP (influenza A virus A/PR/8/34 (PR8), UniProt P03466 1-498). As to conditions: both partners purified.
Test [1] has as its target B1. As to conditions: one partner purified.
The target in test [2] is T1, GST–M1 C-terminal domain fusion protein (influenza A virus A/PR/8/34 (PR8), UniProt P03485 165-252).
T1 construct: Cloned into pGEX-3X; not shown: GST, N-terminal, kept
As to conditions: one partner purified.

Test [3] deals with B3. Particulars: one partner purified.

Sequence of purified NP (P03466 whole entry): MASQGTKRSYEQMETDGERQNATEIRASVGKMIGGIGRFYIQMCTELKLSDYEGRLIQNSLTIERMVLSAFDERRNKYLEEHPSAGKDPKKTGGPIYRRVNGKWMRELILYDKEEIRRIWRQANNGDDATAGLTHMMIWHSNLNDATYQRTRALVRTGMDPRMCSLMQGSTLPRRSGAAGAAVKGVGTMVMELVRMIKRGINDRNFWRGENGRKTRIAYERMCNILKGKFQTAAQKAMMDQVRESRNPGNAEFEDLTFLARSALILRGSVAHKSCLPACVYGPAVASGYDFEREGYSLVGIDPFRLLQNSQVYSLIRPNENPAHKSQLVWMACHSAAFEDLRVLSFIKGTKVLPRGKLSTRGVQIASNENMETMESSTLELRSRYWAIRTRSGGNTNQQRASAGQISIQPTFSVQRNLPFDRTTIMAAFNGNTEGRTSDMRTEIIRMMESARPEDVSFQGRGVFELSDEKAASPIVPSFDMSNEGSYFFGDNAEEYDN

Regarding B1, the binding result with purified NP is reported as “binds”.

As to B2, the “binding activity relative to full-length GST–M1” value in test [1] was 2 fold; in test [2], about 40%; in test [3], 2 fold.

As for B3, in the test with purified NP, the binding result is on record as “binds”.

Consider B4, for which, in the test with purified NP, the binding result was “binds”.
